Experimental data taken from patent publication US20030008329A1 (Takeda / Millennium, published 2003).
One block for each molecule: values may come before it. Where no end group is shown, it is not given here.

Columns and labels:
[1] = target: mouse-derived galanin receptor protein (mouse pancreatic β-cell line MIN6-derived, encoded by pMGR20) (mouse) (UniProt P56479); test: competition with [125I] porcine galanin on MIN6 cell membrane fractions, 25 C 75 min, filtration
[2] = target: mouse-derived galanin receptor protein (mouse pancreatic β-cell line MIN6-derived, encoded by pMGR20) (mouse) (UniProt P56479); test: competition with 100 pM porcine [125I] galanin on membranes of CHO cells expressing the mouse galanin receptor, 25 C 75 min
[3] = target: mouse-derived galanin receptor protein (mouse pancreatic β-cell line MIN6-derived, encoded by pMGR20) (mouse) (UniProt P56479); test: competition with porcine [125I] galanin on membranes of CHO cells expressing the mouse galanin receptor
[4] = target: T1, mouse-derived galanin receptor protein (mouse pancreatic β-cell line MIN6-derived, encoded by pMGR20) (mouse, UniProt P56479 1-348); test: as above
T1 construct: also called mouse galanin receptor; MIN6-derived galanin receptor protein
T1 sequence: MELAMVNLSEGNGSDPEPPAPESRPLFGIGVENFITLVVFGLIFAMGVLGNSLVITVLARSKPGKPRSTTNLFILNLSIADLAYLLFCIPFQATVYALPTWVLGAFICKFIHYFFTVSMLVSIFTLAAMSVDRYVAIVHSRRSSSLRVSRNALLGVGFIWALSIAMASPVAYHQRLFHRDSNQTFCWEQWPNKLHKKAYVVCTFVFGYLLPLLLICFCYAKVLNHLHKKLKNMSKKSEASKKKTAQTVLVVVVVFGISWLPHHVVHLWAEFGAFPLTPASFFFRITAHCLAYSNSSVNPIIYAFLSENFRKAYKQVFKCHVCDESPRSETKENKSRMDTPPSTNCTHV
Protocol: (§1) Membrane fractions (1 μg of protein) were incubated with the ligands for 75 min at 25° C. […] Each symbol represents the mean value±S.E.M. of the triplicate assays.

[5] = target: T1, mouse-derived galanin receptor protein …; test: competition with [125I] porcine galanin on MIN6 cell membrane fractions, 25 C 75 min, filtration
Protocol: The MIN6 cell membrane fractions prepared by the method of the above-mentioned (1) were diluted with a buffer for the receptor binding experiment (containing 20 mM of Tris, 1 mM of EDTA, 0.03% of NaN , 0.1% of BSA, 0.05% of CHAPS, 0.5 mM of PMSF, 10 μg/ml of pepstatin, 20 μg/ml of leupeptin and 4 μg/ml of E-64; pH: 7.4) to make the membrane protein concentration 50 μg/ml.
The mixture was allowed to stand in a water bath of 25° C. for 75 minutes to promote the receptor binding reaction. Thereafter, 1.5 ml of an ice-cooled buffer for the binding experiment was added to the reaction solution for quenching the binding reaction and filtered with a glass fiber filter (GF/F, manufactured by Whatman) immediately whereupon the membrane fractions were collected on the filter paper. Then the filter paper was washed with 1.5 ml of the same buffer and the amount of the radioisotope in the filter paper was determined by a gamma-ray detector.

[6] = target: T1, mouse-derived galanin receptor protein …; test: competition with 100 pM porcine [125I] galanin on membranes of CHO cells expressing the mouse galanin receptor, 25 C 75 min
Protocol: as §1

[7] = target: T1, mouse-derived galanin receptor protein …; test: saturation binding and Scatchard plot analysis on membrane fractions of CHO cells transformed with mouse galanin receptor cDNA, 25 C 75 min, filtration
Excerpt: (§2) The results shown are from one representative experiment performed in triplicate assays.
as §2

Molecule: M15 (galanin receptor antagonist) (peptide)
IC50 [2]: 0.83 nM
Ki [3]: 0.23 nM

B3: porcine [125I] galanin (peptide, UniProt P07480 33-61, looked up)
peptide: GWTLNSAGYLLGPHAIDNHRSFHDKYGLA
modifications: ends and bridges not checked; also: [125I] radioisotope label (residue not given here)
notes: mature; also called labeled galanin
Kd [7]: 0.045 nM

B4: galanin (1-16) partial peptide (peptide)
peptide: GWTLNSAGYLLGPHAI
notes: The range 1-16 counts on the mature peptide, not on the precursor
Ki [4]: 1 nM
IC50 [5]: 3.3 nM
IC50 [6]: 3.6 nM

Continued, values first:

IC50 [1]: 0.69 nM
Molecule: galanin antagonist (galantide) (peptide)

Ki [4]: 0.072 nM
IC50 [5]: 0.12 nM
B1: porcine galanin (unlabeled) (peptide, UniProt P07480 33-61, looked up)
peptide: GWTLNSAGYLLGPHAIDNHRSFHDKYGLA
modifications: ends and bridges not checked
notes: mature; The assay used the 29-residue peptide; also called standard porcine galanin; galanin (porcine)

Ki [4]: 0.12 nM
IC50 [6]: 0.43 nM
B2: human galanin (unlabeled) (peptide, UniProt P22466 33-62, looked up)
peptide: GWTLNSAGYLLGPHAVGNHRSFSDKNGLTS
notes: mature; The assay used the galanin peptide
